Data from the supplement of paper PMC10724198.
± gives the standard deviation of the averaged measurements.

What was measured:
Saccharomyces cerevisiae [1] = test: protein stability index of tFT-peptide fusion (C-terminal peptide) (PSI (0-1 scale)); higher = more stable (slower turnover)
Procedure: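 MPS profiling in S. cerevisiae of the tFT-X12 degron library: putative degron peptides plus stable controls, 12 aa, fused to the C-terminus of a sfGFP-mCherry timer. Cells are FACS-sorted into 8 mCherry/sfGFP bins and deep-sequenced. PSI runs from 0 (unstable) to 1 (stable). Backgrounds are wild type, das1Δ and doa10Δ at 30 °C, and wild type, das1Δ, cdc34-1 and cdc53-1 at 37 °C; 2-3 technical replicates each.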

Saccharomyces cerevisiae [2] = test: as above; settings: genetic background: wild type; temperature: 30 C
[3] = genetic background: cdc34-1, temperature: 37 C
[4] = genetic background: cdc53-1, temperature: 37 C
[5] = genetic background: das1 deletion, temperature: 30 C
[6] = genetic background: das1 deletion, temperature: 37 C
[7] = genetic background: doa10 deletion, temperature: 30 C
[8] = genetic background: wild type, temperature: 30 C
[9] = genetic background: wild type, temperature: 37 C
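Further: PSI is a weighted mean of sequencing reads over stability bins, variants kept only with over 10 reads, mCherry proximal and sfGFP distal, peptide attached via GGGS linker.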

| Sequence | protein stability index (Saccharomyces cerevisiae [1]; [3]) | protein stability index (Saccharomyces cerevisiae [1]; [4]) | protein stability index (Saccharomyces cerevisiae [1]; [5]) | protein stability index (Saccharomyces cerevisiae [1]; [6]) | protein stability index (Saccharomyces cerevisiae [1]; [7]) | protein stability index (Saccharomyces cerevisiae [1]; [8]) | protein stability index (Saccharomyces cerevisiae [1]; [9]) | protein stability index (Saccharomyces cerevisiae [2]) |
| --- | --- | --- | --- | --- | --- | --- | --- | --- |
| GRVFSSFFLYIS | 0.051 ± 0.02 | 0.0556 ± 0.0033 | 0.112 ± 0.011 | 0.184 ± 0.011 | 0.14 ± 0.0057 | 0.0543 ± 0.017 | 0.0883 ± 0.017 | 0.0831 ± 0.0098 |
| GRVYLLGLYMSF | 0.453 ± 0.041 | 0.485 ± 0.026 | 0.306 ± 0.083 | 0.525 ± 0.064 | 0.3887 ± 0.0029 | 0.338 ± 0.026 | 0.481 ± 0.037 | 0.373 ± 0.0094 |
| GSLGHCWFLFGV | 0.59 ± 0.038 | 0.538 ± 0.011 | 0.539 ± 0.022 | 0.461 ± 0.0075 | 0.556 ± 0.064 | 0.538 ± 0.0098 | 0.475 ± 0.021 | 0.463 ± 0.016 |
| GSLHVISVVGML | 0.696 ± 0.012 | 0.709 ± 0.019 | 0.592 ± 0.016 | 0.695 ± 0.018 | 0.393 ± 0.0045 | 0.439 ± 0.018 | 0.595 ± 0.014 | 0.52 ± 0.034 |
| GSVLWISCLIFC | 0.157 ± 0.019 | 0.267 ± 0.0085 | 0.189 ± 0.035 | 0.349 ± 0.0061 | 0.1641 ± 0.0013 | 0.18 ± 0.027 | 0.347 ± 0.038 | 0.3 ± 0.026 |
| GTHWARLGWLLA | 0.607 ± 0.03 | 0.711 ± 0.036 | 0.619 ± 0.019 | 0.724 ± 0.022 | 0.161 ± 0.0026 | 0.176 ± 0.023 | 0.379 ± 0.033 | 0.227 ± 0.11 |
| GVAFGLLVWLLG | 0.432 ± 0.021 | 0.509 ± 0.014 | 0.357 ± 0.026 | 0.5307 ± 0.0018 | 0.304 ± 0.02 | 0.326 ± 0.033 | 0.484 ± 0.0068 | 0.378 ± 0.071 |
| GVGAISLGFSWL | 0.734 ± 0.021 | 0.763 ± 0.013 | 0.658 ± 0.019 | 0.7855 ± 0.0022 | 0.652 ± 0.03 | 0.67 ± 0.027 | 0.7491 ± 0.0035 | 0.717 ± 0.013 |
| GWLRHGWWRTVG | 0.605 ± 0.024 | 0.709 ± 0.0069 | 0.658 ± 0.024 | 0.734 ± 0.011 | 0.152 ± 0.0082 | 0.17 ± 0.018 | 0.4286 ± 0.00089 | 0.313 ± 0.0015 |
| GWMLVVWCGVFG | 0.174 ± 0.01 | 0.235 ± 0.0027 | 0.216 ± 0.035 | 0.338 ± 0.011 | 0.192 ± 0.011 | 0.195 ± 0.031 | 0.295 ± 0.0069 | 0.275 ± 0.03 |
| GYAFPPPHRVRT | 0.654 ± 0.073 | 0.7419 ± 0.0073 | 0.669 ± 0.023 | 0.7288 ± 0.0051 | 0.6865 ± 0.0043 | 0.652 ± 0.029 | 0.702 ± 0.016 | 0.741 ± 0.025 |
| GYLVFTLRWLRG | 0.384 ± 0.038 | 0.491 ± 0.035 | 0.343 ± 0.027 | 0.507 ± 0.016 | 0.271 ± 0.026 | 0.305 ± 0.02 | 0.461 ± 0.0085 | 0.461 ± 0.06 |
| GYTVYARRLIMC | 0.215 ± 0.0094 | 0.265 ± 0.008 | 0.236 ± 0.024 | 0.382 ± 0.021 | 0.0746 ± 0.0026 | 0.0799 ± 0.0087 | 0.0893 ± 0.024 | 0.146 ± 0.015 |
| GYVVYRRYILIR | 0.0341 ± 0.0027 | 0.0546 ± 0.03 | 0.111 ± 0.017 | 0.131 ± 0.026 | 0.219 ± 0.0094 | 0.0783 ± 0.012 | 0.0969 ± 0.011 | 0.141 ± 0.0084 |
| HCSRMIIIFLFL | 0.312 ± 0.044 | 0.425 ± 0.042 | 0.276 ± 0.045 | 0.488 ± 0.039 | 0.303 ± 0.061 | 0.282 ± 0.013 | 0.514 ± 0.038 | 0.371 ± 0.035 |
| HLYITGIIRKIT | 0.519 ± 0.027 | 0.619 ± 0.11 | 0.668 ± 0.054 | 0.695 ± 0.016 | 0.0875 ± 0.0033 | 0.165 ± 0.024 | 0.126 ± 0.029 | 0.179 ± 0.036 |
| HMVSWTVVRSLM | 0.652 ± 0.065 | 0.7014 ± 0.004 | 0.603 ± 0.019 | 0.76 ± 0.026 | 0.138 ± 0.029 | 0.144 ± 0.0044 | 0.2582 ± 0.00046 | 0.316 ± 0.011 |
| HYTSFAVPPLVY | 0.524 ± 0.037 | 0.476 ± 0.025 | 0.366 ± 0.018 | 0.5275 ± 0.0048 | 0.3404 ± 0.0026 | 0.376 ± 0.018 | 0.487 ± 0.011 | 0.481 ± 0.024 |
| IFFFQFLWFCLS | 0.296 ± 0.0037 | 0.295 ± 0.0059 | 0.305 ± 0.036 | 0.4186 ± 0.0012 | 0.243 ± 0.0098 | 0.206 ± 0.028 | 0.339 ± 0.015 | 0.315 ± 0.038 |
| IFRLVRVVRSSS | 0.669 ± 0.015 | 0.688 ± 0.037 | 0.6 ± 0.025 | 0.714 ± 0.05 | 0.19 ± 0.036 | 0.236 ± 0.03 | 0.476 ± 0.011 | 0.386 ± 0.031 |

| Sequence | protein stability index (Saccharomyces cerevisiae [1]; [3]) | protein stability index (Saccharomyces cerevisiae [1]; [4]) | protein stability index (Saccharomyces cerevisiae [1]; [5]) | protein stability index (Saccharomyces cerevisiae [1]; [6]) | protein stability index (Saccharomyces cerevisiae [1]; [7]) | protein stability index (Saccharomyces cerevisiae [1]; [8]) | protein stability index (Saccharomyces cerevisiae [1]; [9]) | protein stability index (Saccharomyces cerevisiae [2]) |
| --- | --- | --- | --- | --- | --- | --- | --- | --- |
| IIAVFRCCLRVY | 0.052 ± 0.0087 | 0.12 ± 0.022 | 0.131 ± 0.034 | 0.216 ± 0.003 | 0.061 ± 0.02 | 0.0911 ± 0.025 | 0.152 ± 0.012 | 0.168 ± 0.076 |
| IIFWMWVIIRVY | 0.121 ± 0.11 | 0.0686 ± 0.034 | 0.142 ± 0.04 | 0.205 ± 0.0091 | 0.114 ± 0.04 | 0.108 ± 0.039 | 0.116 ± 0.092 | 0.139 ± 0.044 |
| IIPAFPFAFLAF | 0.527 ± 0.0088 | 0.526 ± 0.018 | 0.415 ± 0.026 | 0.565 ± 0.0086 | 0.432 ± 0.0046 | 0.407 ± 0.017 | 0.541 ± 0.0073 | 0.489 ± 0.0067 |
| IISPLRLLPLFF | 0.634 ± 0.018 | 0.73 ± 0.013 | 0.61 ± 0.039 | 0.724 ± 0.0088 | 0.271 ± 0.011 | 0.298 ± 0.03 | 0.515 ± 0.0086 | 0.388 ± 0.017 |
| IKERRKVSMKVY | 0.639 ± 0.023 | 0.688 ± 0.02 | 0.519 ± 0.035 | 0.677 ± 0.018 | 0.321 ± 0.009 | 0.373 ± 0.015 | 0.557 ± 0.032 | 0.474 ± 0.022 |
| ILFCVRIGLFWT | 0.0461 ± 0.0067 | 0.135 ± 0.0014 | 0.137 ± 0.03 | 0.24 ± 0.0035 | 0.146 ± 0.019 | 0.128 ± 0.03 | 0.179 ± 0.014 | 0.219 ± 0.051 |
| INGINHKIIKIV | 0.44 ± 0.025 | 0.721 ± 0.042 | 0.65 ± 0.036 | 0.72 ± 0.013 | 0.0842 ± 0.014 | 0.0896 ± 0.017 | 0.0909 ± 0.0048 | 0.155 ± 0.025 |
| INILVIWRKNHV | 0.463 ± 0.00091 | 0.671 ± 0.041 | 0.5213 ± 0.0049 | 0.662 ± 0.014 | 0.0744 ± 0.0074 | 0.0776 ± 0.024 | 0.114 ± 0.021 | 0.129 ± 0.048 |
| IPLGLTLVQCLY | 0.614 ± 0.03 | 0.61 ± 0.029 | 0.491 ± 0.042 | 0.60744 ± 0.00017 | 0.4357 ± 0.00058 | 0.477 ± 0.009 | 0.576 ± 0.0069 | 0.53 ± 0.053 |
| IREYSIRIKRLQ | 0.623 ± 0.062 | 0.722 ± 0.052 | 0.64 ± 0.041 | 0.719 ± 0.022 | 0.138 ± 0.016 | 0.146 ± 0.04 | 0.318 ± 0.058 | 0.33 ± 0.036 |
| IRFFLIVFCFLR | 0.157 ± 0.015 | 0.131 ± 0.017 | 0.251 ± 0.019 | 0.286 ± 0.041 | 0.273 ± 0.0057 | 0.203 ± 0.025 | 0.226 ± 0.022 | 0.284 ± 0.021 |
| ISATYSYIPVVG | 0.502 ± 0.0071 | 0.496 ± 0.011 | 0.346 ± 0.024 | 0.541 ± 0.012 | 0.32388 ± 3.1e-05 | 0.378 ± 0.023 | 0.507 ± 0.0073 | 0.455 ± 0.038 |
| ISVRKTFLIVLC | 0.331 ± 0.031 | 0.351 ± 0.018 | 0.266 ± 0.047 | 0.486 ± 0.01 | 0.152 ± 0.015 | 0.156 ± 0.013 | 0.279 ± 0.025 | 0.232 ± 0.022 |
| IVFLPVLLWFSV | 0.389 ± 0.0069 | 0.411 ± 0.0085 | 0.333 ± 0.032 | 0.474 ± 0.0013 | 0.373 ± 0.019 | 0.297 ± 0.035 | 0.442 ± 0.0084 | 0.407 ± 0.015 |
| IVTSFVSPVYIC | 0.396 ± 0.035 | 0.5353 ± 0.003 | 0.456 ± 0.017 | 0.634 ± 0.055 | 0.0637 ± 0.023 | 0.0746 ± 0.014 | 0.0794 ± 0.021 | 0.12 ± 0.029 |
| IWVFSVTGWCGC | 0.501 ± 0.0055 | 0.589 ± 0.018 | 0.401 ± 0.022 | 0.55 ± 0.008 | 0.3804 ± 0.0007 | 0.417 ± 0.019 | 0.532 ± 0.016 | 0.452 ± 0.024 |
| IYITFQIYVSDM | 0.104 ± 0.018 | 0.172 ± 0.0076 | 0.161 ± 0.019 | 0.267 ± 0.0076 | 0.0912 ± 0.04 | 0.127 ± 0.0083 | 0.244 ± 0.032 | 0.229 ± 0.018 |
| IYLLLFFFSFSA | 0.365 ± 0.032 | 0.449 ± 0.053 | 0.376 ± 0.017 | 0.5104 ± 0.0037 | 0.3328 ± 6e-05 | 0.348 ± 0.029 | 0.457 ± 0.024 | 0.3914 ± 0.0012 |
| KKKQAILRTLKI | 0.681 ± 0.079 | 0.74 ± 0.026 | 0.663 ± 0.049 | 0.697 ± 0.037 | 0.177 ± 0.045 | 0.197 ± 0.0073 | 0.417 ± 0.013 | 0.406 ± 0.0082 |
